Columns and labels:
lysozyme (Sigma) [1] = target: T1, lysozyme (Sigma) (chicken, UniProt P00698 19-147); assay: ELISA on coated lysozyme, E. coli periplasmic extracts normalized for total protein
T1 construct: also called lysozime; Lisozyme

[2] = target: cucumber mosaic virus (CMV), purified (cucumber mosaic virus); assay: SPR (BIAcoreX), purified CMV amine-coupled to a CM5 chip, scFv in flow; kD=koff/kon
lysozyme (Sigma) [3] = target: T1, lysozyme (Sigma); assay: column 'Specificity' of Table I; clone selected from the monoscaffold phage library and screened by ELISA

T1 sequence (P00698 19-147): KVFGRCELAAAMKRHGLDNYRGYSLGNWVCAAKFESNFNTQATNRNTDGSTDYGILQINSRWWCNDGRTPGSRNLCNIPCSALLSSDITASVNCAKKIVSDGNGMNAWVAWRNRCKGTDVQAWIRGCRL

B1: scFv(P5) (scFv)
scFv: QVQLQESGGDLVQPGGSLKLSCAVSGFSLTGYGVNWVRQTPDKRLEWVAMIWGDGNTDYNSSVKGRFTISKDNAKSTVYLQMSSLKSEDTAMYYCARERDYRLDYWGQGTTVTVSSGGGGSGGGGSGGGGSDIELTQSPASLAVSLGQRATISCRASGNIHNYLAWYQQKPGQPPKLLIYYTTTLADGIPARFSGSGSGTDYTLTINPVEADDVATYYCQHFWSTPRTFGGGTKLEIKR
notes: Last product of mutagenesis, with the highest number of substitutions; also called P5 mutant; LYS/P5
- binding result (lysozyme (Sigma) [1]): binds

B2: scFv(CMV-4G) (scFv)
scFv: QVQLQESGGDLVQPGGSLKLSCAASGFTFSSYGMSWVRQTPDKRLELVATINSNGGSTFYPDSVKGRFTISRDNAKNTLYLQMSSLKSEDTAMYYCARNNWSFDYWGQGTTVTVSSGGGGSGGGGSGGGGSDIELTQSPASLAVSLGQRATISCRASESVHNYMHWYQQKPGQPPKLLIYRALNLESGIPARFSGSGSRTDFTLTINPVEADDVATYYCQQGQRKPWTFGGGTKLEIKR
- Kd [2]: 60 nM

B3: scFv(CMV-4B) (scFv)
scFv: QVQLQESGGDLVQPGGSLKLSCAASGFTFSSYGMSWVRQTPDKRLELVATINSNGGSTFYPDSVKGRFTISRDNAKNTLYLQMSSLKSEDTAMYYCARNNYSFDYWGQGTTVTVSSGGGGSGGGGSGGGGSDIELTQSPASLAVSLGQRATISCRASESVHNYMHWYQQKPGQPPKLLIYRALNLESGIPARFSGSGSRTDFTLTINPVEADDVATYYCQQGRRAPWTFGGGTKLEIKR
- Kd [2]: 10 nM

B4: scFv(LYS-11E) (scFv)
scFv: QVQLQESGGDLVQPGGSLKLSCAASGFTFSSYGMSWVRQTPDKRLELVATINSNGGSTFYPDSVKGRFTISRDNAKNTLYLQMSSLKSEDTAMYYCARTRPYFDYWGQGTTVTVSSGGGGSGGGGSGGGGSDIELTQSPASLAVSLGQRATISCRASESVHNYMHWYQQKPGQPPKLLIYRALNLESGIPARFSGSGSRTDFTLTINPVEADDVATYYCQQVTYKPWTFGGGTKLEIKR
notes: also called scFv(HEL-11E)
- binding result (lysozyme (Sigma) [3]): binds

Source: patent US20030157090A1 (published 2003)
